T1: B7H3-hFc (UniProt Q5ZPR3 29-466, limits assumed)
T1 construct: Construct limits, linker and Fc not described; also called B7H3-hFc protein; not shown: human Fc (hFc)
T1 sequence (looked up): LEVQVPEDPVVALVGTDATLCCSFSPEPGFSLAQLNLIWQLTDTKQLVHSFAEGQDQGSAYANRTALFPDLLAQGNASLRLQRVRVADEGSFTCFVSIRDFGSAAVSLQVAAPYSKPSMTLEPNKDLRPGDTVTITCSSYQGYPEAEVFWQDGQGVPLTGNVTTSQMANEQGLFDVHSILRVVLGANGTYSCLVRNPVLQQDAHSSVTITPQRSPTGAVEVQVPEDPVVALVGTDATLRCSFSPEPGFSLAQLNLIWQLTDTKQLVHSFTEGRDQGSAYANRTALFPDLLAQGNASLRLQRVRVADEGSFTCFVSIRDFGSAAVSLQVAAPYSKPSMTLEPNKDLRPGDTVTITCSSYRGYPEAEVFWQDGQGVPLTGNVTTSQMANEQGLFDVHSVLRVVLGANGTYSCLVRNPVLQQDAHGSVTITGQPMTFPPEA

T2: B7H3 on the cell surface (PC9 cells; 293T-B7H3 cells) (UniProt Q5ZPR3 29-534, limits assumed)
T2 construct: whole, on cells; both carry B7H3 on the surface; also called Cell Surface B7H3; B7H3 protein in PC9 cells
T2 sequence (looked up): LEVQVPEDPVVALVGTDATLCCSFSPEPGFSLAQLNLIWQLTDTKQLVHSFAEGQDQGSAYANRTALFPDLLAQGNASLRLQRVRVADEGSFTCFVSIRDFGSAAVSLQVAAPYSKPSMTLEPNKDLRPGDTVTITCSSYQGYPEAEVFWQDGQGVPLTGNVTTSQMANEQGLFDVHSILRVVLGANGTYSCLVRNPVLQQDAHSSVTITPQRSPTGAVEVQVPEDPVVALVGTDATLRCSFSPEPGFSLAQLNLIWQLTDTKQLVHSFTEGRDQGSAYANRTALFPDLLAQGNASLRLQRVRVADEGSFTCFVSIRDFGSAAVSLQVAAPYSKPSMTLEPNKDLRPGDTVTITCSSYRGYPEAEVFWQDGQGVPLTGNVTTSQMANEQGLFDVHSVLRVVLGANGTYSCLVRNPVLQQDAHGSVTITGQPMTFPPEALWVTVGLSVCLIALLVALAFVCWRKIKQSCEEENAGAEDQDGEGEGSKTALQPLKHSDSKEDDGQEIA

B1: 14B3 (antibody, mouse IgG1, V domains shown)
VH: QVQLQQSGPELVRPGVSVKISCKGSGYTFTDHAIHWVKQSHAKSLEWIGVINTYSGNTNFNQKLKGKATMTVDKSSSTAYMELARLTSEDSAIYYCARGAHSSGYPYWYFDVWGAGTTVTVSS
VL: QIVLSQSPAILSASAGEKVTMTCRASSSVSYMHWYQQKPGSSPKPWIYATSNLASGVPARFSGSGSGTSYSLTISRVEAEDAATYYCQQWSTNPFTFGSGTKLEMK
notes: Murine hybridoma antibody; also called B7H3 hybridoma monoclonal antibody 14B3
B2: 7E6 (antibody, mouse IgG1, V domains shown)
VH: QVQLQQSGPELVRPGVSVKISCKGSGYTFTDYAMHWVKQSHAKSLEWIGVINSYYGNTHYNQKFKGKATMTVDKSSSTAYMELARLTSEDSAIYYCARAGGYSYGSSYRPDRFAYWGQGTLVIVSA
VL: DIQMTQSPASQSASLGESVTITCLASQTIGTWLAWYQQKPGKSPQLLIYAATNLADGVPSRFSGSGSGTKFSFKISSLQAEDFVSYYCQQLYSTPYTFGGGTKLEIK
notes: Murine hybridoma antibody; also called B7H3 hybridoma monoclonal antibody 7E6
B3: 7F5 (antibody, mouse IgG1, V domains shown)
VH: EVQLQQSGAELVRPGALVKLSCKTSGFNIKAYYIHWVKQRPEQGLEWIGWIDPENGNTFYDPKFQGKASITADTSSNTAYLQLSSLTSEDAAVYYCTRSSTRLRPFDYWGQGTTLTVSS
VL: DIVMTQAAFSNPVTLGTSASISCRSSKSLLHSNGITYLYWYLQKSGQSPQLLIYQMSNLASGVPDRFSSSGSGTDFTLRISRVEAEDVGVYYCAQNLELYTFGGGTKLEIK
notes: Murine hybridoma antibody purified by protein A; also called B7H3 hybridoma monoclonal antibody 7F5
B4: 5B6 (antibody, mouse IgG1, V domains shown)
VH: QVQLQQSGAELARPGASVKMSCKTSGYTFITYTIHWVKQRPGQGLEWIGYINPTSDYANFNQKFKDKATLTADKSSRTAYMQLSSLTSEDSAVYYCARWGTTVFQFYFDYWGQGTTLTVSS
VL: QIVLSQSPAILSASPGEKVTMTCRASQSLSYINWYQLKPGSSPKPWIYATSSLQSGVPARFSGSASGTSYSLTISRVEAEDAATYFCQHWSSDPPTIGGGTKLEIK
notes: Murine hybridoma antibody; also called B7H3 hybridoma monoclonal antibody 5B6
B5: 13A2 (antibody, mouse IgG2b, V domains shown)
VH: EVQLQQSGPELVKPGASVKISCKTSGYTFTEYVMHWVKQRHGQSLEWIGGINPNTGGTTYNQKFEGKATLTVDKSSSSAYMEFRSLTSEDSAVYYCARRMPFGISAMDYWGQGTSVTVSS
VL: QIVLTQSPAIMSASPGEKVTMTCSASSSVSYIHWFQQKSGTSPKRWISETSKLASGVPARFSGSGSGTSYSLTISSMGAEDAATYYCHQWISYPPTFGAGTKLELK
notes: Murine hybridoma antibody; also called B7H3 hybridoma monoclonal antibody 13A2
B6: 2A9 (antibody, mouse IgG2b, V domains shown)
VH: EVQLQQSGPELVKPGASVKISCKTSGYTFTEYIMHWVKQSRGKSLEWIGGINPNSGGTTYNEKFKGKATLTVDKSASTAYMELRSLTSEDSAIYYCARRMPYWYFDVWGAGTTVTVSS
VL: B5 VL with F35Y, Q36R, I47V, S48Y, E49D, G78E, H88Q, I91V, Y93N, P95L
notes: Murine hybridoma antibody; also called B7H3 hybridoma monoclonal antibody 2A9
B7: 2F7 (antibody, mouse IgG2b, V domains shown)
VH: QVQLQQPGAELVKPGASVKLSCKASGYTFTSYYIYWLKQRPGQGLEWIGGIKPSNGDTNFNAKFMNKATLTVDKSSSTAYMQLSSLTSEDSAIYYCTRFFYGSPYDFDVWGAGTTVTVSS
VL: NIVMTQSPKSMSMAVGERVTLTCKASENVDTHVSWYQQKPEQSPTLLMYGTSNRFTGVPDRFTGSGSATDFTLTISSVQAEDLADYHCGQSYRYPYTFGGGTKLEIK
notes: Murine hybridoma antibody; also called B7H3 hybridoma monoclonal antibody 2F7
B8: 7C9 (antibody, mouse IgG1, V domains shown)
VH: EVQLQQSGTELVRPGALVKLSCKASALNIKDFYMHWVKQRPERGLEWIGWIDPDNGNTIYDPKFQGKASITADISSSTAYLQLSSLTSEDTAVYYCARSSTRQRPFDYWGQGTTLTVSS
VL: DIVMTQSHKVMSTSVGDRVSITCKASQDVRTGVAWYQQKPGQSPKLLIYSAFYRYTGVPDRFTVSGSGADFTFTITSVQAEDLAVYYCQQYYSIPWTFGGGTKLEIK
notes: Murine hybridoma antibody; also called B7H3 hybridoma monoclonal antibody 7C9
B9: 2E10 (antibody, mouse IgG2a, V domains shown)
VH: EVQLQQSGPELVKPGASVKISCKTSGYTFTEYTMHWVKQSHGKNLEWIGGINTDNGGTTYSQKFKDKATLTVDRSSSTAYMVLRSLTSEDSAVYYCARSFNNYGPAWFAYWGQGALVTVSA
VL: DIVMTQSHKFMSTSIGDRVSITCKASQDVRSAVAWYQQRPGQSPKLLIYWASTRHTGVPARFTGSGSGTDYTLTINNVQSEDLAGYFCQQYSSYFTFGGGTKLEKK
notes: Murine hybridoma antibody; also called B7H3 hybridoma monoclonal antibody 2E10
B10: 7B7 (antibody, mouse IgG2b, V domains shown)
VH: EVKLVESGGGLVRPGGSLKLSCAASGFTFSSYAVSWVRQTPEKRLEWVASISGGGIYIYYPDSVKGRFTISRDNAKNNLYLQMNSLTPDDTALYYCARHGGAGYFDYWGQGTTLTVSS
VL: DSLMTQSPASLSASVGETVTITCRGSESVHSYLAWYQQKQGKSPQLLVYNAKTLQSGVPSRFSGSGSGTQFSLRINSLQPEDFGTYYCQQHYGSPPWTFGGGTILEIK
notes: Murine hybridoma antibody; also called B7H3 hybridoma monoclonal antibody 7B7
B11: 9C8 (antibody, mouse IgG1, V domains shown)
VH: EVQLQQSGPELVKPGASVKISCKTSGYTFTEYTIHWVKQSHGKSLEWIGGINPNSGGTTYNLKFKGKATLTVDKSSSTVYMELRSLTSEDSAVYYCARKEGFFTTDYWGQGTTLTVSS
VL: QTVLTQSPAIMSASPGEKVTMTCSASSSLSYIHWYRQKSGTSPKRWIYDTSNLATGVPVRFSGSGSGTSYSLTISSMEAEDAATYYCQQWHYNPPTFGGGTKLEIK
notes: Murine hybridoma antibody; also called B7H3 hybridoma monoclonal antibody 9C8
B12: 15A2 (antibody, mouse IgG1, V domains shown)
VH: QVQLQQSGPEVVKPGALVRISCKASGYTFTSYDINWVKQRPGQGLEWIGWIDPGDGSTKYNEKFKGKATLTADKSSSTAYMQFSSLTSENSAVYFCVRRGFDYWGQGTTLTVSS
VL: QILLTQSPAIMSASPGEKVTMTCRTSSSVSYLHWFQQKPGSSPKLWIHDTSNLASGFPARFSGSGSGTSYSLIISSMEAEDAATYYCHQRSSYPWTFGGGTKLEIK
notes: Murine hybridoma antibody; also called B7H3 hybridoma monoclonal antibody 15A2
B13: 2F12 (antibody, mouse IgG1, V domains shown)
VH: EVQLQQSGPELVKSGASVNISCKTSGYTFTENTMHWVKLSHGKSLEWIGGINPNNGGTTYNQKFKGKATLTVDKSSSTAYMELRSLTSEDSAVYYCARRGRWPPDWYFDVWGAGTTVTVSS
VL: B5 VL with V29L, I32M, F35Y, S48Y, E49D, G78E, H88Q, I91S, Y93N, P95L
notes: Murine hybridoma antibody; also called B7H3 hybridoma monoclonal antibody 2F12

The record followed here is patent US20250276082A1 (INNOLAKE BIOPHARMA HANGZHOU, published 2025).

Positions count from the first letter of the chain named.

One may read the EC50 as the concentration at which the effect is half-maximal. A high value points to a less potent agent.

In one experiment the target is T1, B7H3-hFc. Kind of experiment: ELISA, B7H3-hFc coated plate, purified hybridoma antibody. As to the method:
(1) Screening of B7H3-binding positive clones through ELISA: 50 μL of B7H3-hFc (final concentration: 2 μg/mL) was used to coat each well of a 96-well ELISA plate (Corning, Cat. No.: 9018), and incubated overnight at room temperature. After the ELISA plate was rinsed with washing buffer (PBS+0.05% Tween20) 3 times, blocking buffer (PBS+2% BSA (Sigma, Cat. No.: V90093)) was added and the ELISA plate was incubated at room temperature for 1 hour. The ELISA plate was rinsed with washing buffer 3 times; and hybridoma supernatant was added, and the ELISA plate was incubated at room temperature for 1 hour and rinsed 3 times. 100 μL of 10,000-fold diluted HRP-conjugated goat anti-mouse IgG secondary antibody (Thermo, Cat. No.: 31432) was added to each well, and the ELISA plate was incubated at room temperature for 1 hour in the dark and rinsed 3 times. 100 μL of TMB (Biocytogen, Cat. No.: ES-002) was added to each well, and the ELISA plate was incubated at room temperature for color development for 2 minutes, 100 μL of reaction terminating solution (2N H2SO4) was added to each well to terminate the color reaction, and an OD450 value of each well was read using a microplate reader (Tecan Spark). (2) Screening of B7H3-binding positive clones through FACS: 50 μL of the positive hybridoma supernatant or purified hybridoma antibody in the foregoing test was mixed with 50 μL of 293T-B7H3 cells (2×10⁵ cells/well), and a resulting mixture was added to a 96-well plate with a U-shaped bottom and left standing at 4° C. for 1 hour, the 96-well plate was rinsed with FACS buffer (PBS+3% FCS) and centrifuged twice, then 400-fold diluted PE-labeled goat anti-mouse secondary antibody (Biolegend, Cat. No.: 405307) was added, the 96-well plate was incubated at 4° C. for 30 minutes in the dark, rinsed with FACS buffer and centrifuged twice, and signal values of the cells in a PE channel were detected by using BD Accuri C6 flow cytometer. (3) Subcloning: Positive multiclonal hybridoma cells identified by ELISA and FACS were subcloned using the limiting dilution method. The subclones were further detected and screened using ELISA and FACS to obtain positive hybridoma monoclonal clones.
ELISA and FACS were conducted to detect the binding ability of purified antibody samples to B7H3. Results are shown in FIG. 1(a-b), FIG. 2(a-b) and Table 1.
In general terms: ELISA stands for enzyme-linked immunosorbent assay.
Molecule B1 yielded a concentration giving a half-maximal response (EC50) of 0.0091 µg/mL.

As to B2, the EC50 was determined as 0.00449 µg/mL.

For the molecule B3, the response was half-maximal at 0.00576 µg/mL (EC50).

In turn, B4 came in with an EC50 of 0.00493 µg/mL.

Consider B5, for which the EC50 worked out at 0.00052 µg/mL.

Molecule B6 returned an EC50 of 0.00624 µg/mL.

For the molecule B7, the midpoint of the response, the EC50, lay at 0.00278 µg/mL.

In turn, B8 showed an EC50 of 0.0099 µg/mL.

B9: the EC50 turned out to be 0.0067 µg/mL.

Molecule B10 gave an EC50 of 0.0097 µg/mL.

B11 displayed an EC50 of 0.0104 µg/mL.

For B12, a half-maximal effect (EC50) was put at 0.00151 µg/mL.

For another experiment, the target named is T2, B7H3 on the cell surface (PC9 cells; …). Kind of experiment: FACS on cells carrying B7H3 (PC9 per FIG. 2; 293T-B7H3 per method).
With B1, the midpoint of the response, the EC50, lay at 0.248 µg/mL.

Take B2: a half-maximal effect (EC50) was put at 0.0526 µg/mL.

B3 yielded a 50% effective concentration (EC50) of 0.197 µg/mL.

Molecule B4 yielded an EC50 of 0.0713 µg/mL.

In the case of B5, it took 0.101 µg/mL to reach a half-maximal effect (EC50).

In the case of B13, the EC50 amounted to 0.217 µg/mL.

As for B6, the EC50 worked out at 0.186 µg/mL.

In the case of B7, the EC50 was determined as 0.177 µg/mL.

In turn, B8 gave an EC50 of 0.103 µg/mL.

Molecule B9 displayed an EC50 of 0.234 µg/mL.

In the case of B10, the concentration for a half-maximal effect (EC50) was determined as 0.179 µg/mL.

As for B11, it took 0.0861 µg/mL to reach a half-maximal effect (EC50).

B12 gave an EC50 of 0.0062 µg/mL.
